Experiment: soluble on expression in E. coli; label from the status in PepcDB or PDB records

Sequence	soluble on expression in E. coli
MAHHHHHHMSAEQQRLKKMHCEAVTLAEMKQWLGLPLTTAASSSSAAPAAAAVAAAPKSPVEEAVGRDVYDMYGLSMTAVDAYLLRYLRSKNLVIEDAVAKLRRRRAFERTLPMISVTTTTVAALRSGAFHLLDHDLEGRPVLYINVATFTLPTLELDEAQRLLIILLEFMQARCLLKNNEKVAAMQRRRRQHVDATAAASSFANGGRENNGGAAAPAHGAQDVDKETVSDLQEFALLVNEERVPWMMHASFLKNYSTLLSILPKYYPLLLGSVLVLGASLEIRTAIKACVGSSSEDVRNSVQMIEKADLPRYMDASTIPVELGGHKQIVGSAMNFSETVLRHWFTLTSQIEDECVGSDGGIADSKVPTTISAAGAANGHREDGGGAETSHSPPRPLYVPPPPLGMTQRHISRQRHAVELQHLSSSVVGTITGPGSPGPMRPCKYGGSSARNGKHSLMSSAAAANRSTAVTTPHGTPTSQKDQAAATVTLGAGRAEDVTDDGVCSALSGADERDDYAENEGGGAGMHTRTNSGVPTYQLYTAASSLAGSLAVEGEMHLSGLGASHNRHHQGASLYSVASATISREEAAHFADHPDDAVVALRQERRRRQRAEQALYFRDLGVTLDMRNASIIEKELAAIHQDLNVLVAEILVKAEAARKRQKAPPTLKQLLDLTLTAFESVTCTPSSVPAMALAEPAQREAASSSCCSFM	not soluble
RYLLQRKASEALEVEVVDTWQADAVRDTRTLSGGESFLVSLALALALSDLVSHKTRIDSLFLDEGFGTLDSETLDTALDALDALNASGKTIGVISHVEAMKERIPVQIKVKKINGLGYSKLESAFAMK	not soluble
QVQLQQPGSVLVRPGASVKLSCKASGFTFTSSWMHWAKQRPGQGLEWIGEIHPNSGNTHYNEKFKGKATLTVDTSSSTAYVDLSSLTSEDSAVYYCARMRYGDYYAMDNWGQGTSVTVSSAKTTAPPVYPLAPVCGDTTGSSVTLGCLVKGYFPESVTLLWNSGSLSSGVHTFPAVLQSDLYTLSSSVTVTSSTWPSQSITCNVAHPASSTKVDKKIEPRG	soluble
MKVLLIIPAYNEEENILRTIASIETFKQEVTHFQHELDYVVINDGSTDGTKQILEANQINAIHLVLNLGIGGAVQTGYKYALENEYDVAVQFDGDGQHDINSLPILLEPLAEGKCDFSIGSRFIPGNEASFQSTKMRRFGIRLLSFCIRMASGKTIYDVTSGYRAGNRKVIAFFAKRYPTNYPEPESIVHLIKKRFVIVERPVNMMERLGGVSSIRALASVKYMLEVGSAILIAAFMKEGDLEHHHHHH	soluble
MLVRDVMKSPVLTVGPEATLEEAYKLLLERGIRHLPVVEEGRLVGIVTDRDIRLATSHLNPKGPCPGCTRVGEVMTREVVTAHPLDPVEEAARVMRERKIGCLPVLEDEALVGIVTGIDLLDALLRLTGVTEPSGRLEVRLPDRPGELARLTGFLAGRGVNIHSLLSYPEGREFVRAVVRVNTLETHLLAEALRREGFDVLWPPKKPW	soluble
MSLTNKKNLRVVALAPTGRYFASIISSLEILETAAEFAEFQGFMTHVVTPNNRPLIGRGGISVQPTAQWQSFDFTNILIIGSIGDPLESLDNIDPALFDWIRELHLKGSKIVAIDTGIFVVAKAGLLQQNKAVMHSYFAHLFGELFPEIMLMTEQKALIDGNVYLSSGPYSHSSVMLEIVEEYFGKHTRNLGNQFLSTIESSGNSHSYCDVFRYMQHRDELILKIQKWILTTDLDIVSISDLANEACLSERQLKRRFKEATSISPLKFIQLGRLSFAKELLRSTKLSIDEVASRSGYVDTQFFRQIFKRENDCSPLEYRKRNQVKAEGHHHHHH	soluble
MGVDRQILVEGDNVTKPKNGQTVTCHYVLTLENGKKIDSSRDRGTPFKFKIGKGEVIKGWDQGVAQMSVGEKSKLTISADLGYGPRGVPPQIPANATLVFEVELLGVN	soluble
MNKRCEEVLRRYFAEVPFIIEKACELAESMLGEGSHGLSHTIRVLDLALQIGRVEGANLEVLALAAILHDIARPLEDKGRIKDHAQEGARIVRSFLSKLRYPHVDEVAHAIEAHRFSTNIEPRTLEAKILSDADKIDALGAIGIARVFMYAGEKGRSIEDSIKHFEEKILRLKDLMYTETGKRIAQERHKIVEEFVNILKKELIAAALEHHHHHH	soluble
WLFFRYMAIGGYVGAATVGAAAW	soluble
MQELYLLGVVPSRRFEAVVNSLSKTLDGPKTILEFWVVYRPKDVPPNLPRQPDSWLRLCSNIESHDETDTEWSKNTQWSMYLEGNSEPKREDKCGIRPVNRAKLTNGSVTEFVEKMGYEFSHEYIIQGLEYFFFDTTVRIYQTLIPSQQRSIKPPFHPMNEEQPWILHVYTHVADASNQVAMAKAEANLTKVKTLLSAFCDLKNVRL	soluble
AQKSVKISDDISITQLSDKVYTYVSLAEIEGWGMVPSNGMIVINNHQAALLDTPINDAQTEMLVNWVTDSLHAKVTTFIPNHWHGDCIGGLGYLQRKGVQSYANQMTIDLAKEKGLPVPEHGFTDSLTVSLDGMPLQCYYLGGGHATDNIVVWLPTENILFGGCMLKDNQATSIGNISDADVTAWPKTLDKVKAKFPSARYVVPGHGDYGGTELIEHTKQIVNQYIESTSKP	soluble
MPVTLSFGNRHNYEINHSRLARLMSPDKEEALYMGVWDRFKDCFRTHKKQEVLEVLYTLIHGCERENQAELNVDITGMEKIHAFTQLKEYANPSQQDRFVMRFDMNQTQVLFEIDGKVIDKCNLHRLLNVSENCIFKVMEEDEEELFLKICIKYGEKISRYPELLEGFANKLKDAVNEDDDVKDEVYKLMRSGEDRKMECVEWNGTLTEEEKNKLRCLQMGSFNITTQFFKIGYWELEGEVLFDMVHPTLSYLLQAYKPSLSSDLIETNTMLFSDVLNKDYDDYQNNKREIDAILRRIYRSHNNTLFISEKSSCRNMLI	not soluble
ISEFGSSRMLTTLIYRSQVHPDRPPVDLDALVHRASSKNLPLGITGILLFNGLQFFQVLEGTEEALESLFSEIQSDPRHRDVVELMRDYSAYRRFHGTGMRILDLRLFETDGALEEILRFSTFGVTEPVNDRMFRLLSAFIADGGRYCLPEPLQPSRWMMMPASGTAAPQHLPGQPCQFALQAIVEPAKKRVSSFEALIRSPTGGSPVEMFAAIAAEDRYRFDLESKAYAFALAGQLPLGKHQLAINLLPGSLYHHPDAVGWLMDSLLAAGLRPDQVLIEVTETEVITCFDQFRKVLKALRVAGMKLAIDDFGAGYSGLSLLTRFQPDKIKVDAELVRDIHISGTKQAIVASVVRCCEDLGITVVAEGVETLEEWCWLQSVGIRLFQGFLFSRPCLNGIGEICWPVARQAMDL	soluble
MLASMTGYAAVSREIPQGSLALELRSVNNRYLDLQFRLPDELRALESEMRDFLGSGLTRGKVDCRLTFSSYSNSYRQQRLNRDLLQDLQIMSDEIKSIFPAAGDFSVAEILRWPGVLDSDHISIDDLRTPCMALLQTALQELVSARKREGEKLHNLLLERVQRMRQLVLDLLPGLPAILASFQERLLNSLKAAGLDEKDERIRQEFTLFANRVDVDEELSRLQGHLNEFEHILLAGGVVGKRLDFLTQELNREANTLASKSVAREVTRIAVEMKVLIEQLREQIQNIE	not soluble
MGSENSALKSYTLREPPFTLPSGLAVYPAVLQDGKFASVFVYKRENEDKVNKAAKHLKTLRHPCLLRFLSCTVEADGIHLVTERVQPLEVALETLSSAEVCAGIYDILLALIFLHDRGHLTHNNVCLSSVFVSEDGHWKLGGMETVCKVSQATPEFLRSIQSIRDPASIPPEEMSPEFTTLPECHGHARDAFSFGTLVESLLTILNEQVSADVLSSFQQTLHSTLLNPIPKCRPALCTLLSHDFFRNDFLEVVNFLKSLTLKSEEEKTEFFKFLLDRVSCLSEELIASRLVPLLLNQLVFAEPVAVKSFLPYLLGPKKDHAQGETPCLLSPALFQSRVIPVLLQLFEVHEEHVRMVLLSHIEAYVEHFTQEQLKKVILPQVLLGLRDTSDSIVAITLHSLAVLVSLLGPEVVVGGERTKIFKRTAPSFTKNTDLSLEGDPFSQPIKFPINGLSDVKNTSEDSENFPSSSKKSEEWPDWSEPEEPENQTVNIQIWPREPCDDVKSQCTTLDVEESSWDDCEPSSLDTKVNPGGGITATKPVTSAEQKPIPALLSLTEESMPWKSSLPQKISLVQRGDDADQIEPPKVSSQERPLKVPSELGLGEEFTIQVKKKPVKDPEMDWFADMIPEIKPSAAFLILPELRTEMVPKKDDVSPVMQFSSKFAAAEITEGEAEGWEEEGELNWEDNNW	soluble
SLTTFATEWEKQLELYPEEYRKAYRRVKRASEILLREPEPQVGLTPKEVIWTKNKTKLYRYIPKQEKTQRVPILLIYALINKPYIMDLTPGNSLVEYLVDRGFDVYMLDWGTFGLEDSHLKFDDFVFDYIAKAVKKVMRTAKSDE	soluble
MGSDKIHHHHHHMKPIQLPLSVRLRDDATFANYYPGANAAALGYVERLCEAEAGWAESLIYLWGHDGVGRSHLLQAACLRFEQFEERTIYLPMADLVQYGPEIFDDLEQCELVCIDDLDVLVGKREWEEGLFHLFNRLRDTGRRLLLAASKSPRELQVKLPDLKSRLTMALIFQLHGLSDEDKLRALQLRASRRGLHLTDEVGRFILNRGSRSMNSLFDLLEQLDRASLQAQRKLTIPFLKETLGW	not soluble
MGHHHHHHSHMLGSWPARTFHPGACVSRRPSAPWKHTASGKDSPDLRFSEHGVSQEFWAGGLVAVLEMTPSPSPWGTQEDPAGMCSLWVVGWCPCRGAGVRDLVLVHAGVWCKHVCAVQRDACGESRTPAPPRKGGAVTSVLCLFLIKTFPLFSYKFASCKQVHKDPPLVKSGFE	soluble
MGQGAPLFADKGGEIAALMRGAYFVAHNVDFDLPFLQAELERAGWPPFAGPTIDTVELARIVLPTAESYKLGDLARQLGLRHDRPHQADSDAEVTAKLFIALLKRLSRLPLMTLEQLRGLARHLKSDIYLLLDAVIAKKRNKAPADRAVAVYRGIALKQPAPEPDESDRRPALASFAAFCEQEPPLPLPGYKRRAGQWEMMRLVYEALSTSQHALIEAGTGLGKSLAYLIPAAFFACEQQERVVISTHTLQLQEQLIRRDWPVLRQIAPFPLRVAVLKGKQNYLSLDKFASFLSEPSDTYDAALLKCQVLVWLLETDSGDLDELNVSSGARLLLSALAIGEEEDGGRHHFFARAKERSERADVVITNHALLLHDLTGPAPLLPPFRHLIIDEAHRLEDAAARCFGEQIGYVSFRLLTAKIAQTIAKWQEAEQDAPNGALVRCQQRLEELQFEGDELFRLLRRYALDKKPARAGRCRYRFSPTDEQSRAWQAAVELCWRLRDLAAALSAEAKPLLSADTSGDFPPSALLSADLAALNRQMAALVRLLTEKEPGVVRWIEADEKGAANAVRLYSQPVDLADFFADQLFMKKRSVVLTSATLTVRGRFTYMAARLGLEDFYPLCRSFPPPFRYEEQAALFVPADMPLVSAVPLEDYAEAVAASVLAIARRLGRRVLVLFPSYELLKLTVDALKTEEEGEPFVLIAQGVQSGSPAKLLRTFLQFEHAVLFGTSSFWEGVDLPGSALDVLVIARLPFAPPDDPVMEAKSERIRLEGGDPFSELALPEAVLRFKQGFGRLIRTEDDKGAVFVLDRRLMASPYGADFLASLPPLSVHEGALSELLDKAETWLS	not soluble
MIQSGKIYIRGRTVVFMIIRNEQDLEGLRKIGRIVALAREEMKKEAKPGMTTKELDLIGKKVLDEHGAISAPEKEYDFPGVTCISVNEEVAHGIPGDRVLKEGDLVNVDVSAALDGYYADTGISFVLGEDEAKEKLCQAAVDAFWAAMKKVKAGSKQNQIGRAVSNFAHKNGYNVIQNLTGHGIGLSLHEAPNHILSYFDPMDNALLKDGLVIAVEPFISMKADHIIERGDDGWTFVTPDKSLVAQCEHTVVVTRGEPIILTEI	soluble
